Article doi:10.1101/2022.08.14.503891 (bioRxiv, 2022)
Where “and” joins values, the source holds several entries; their conditions need not be identical. Equal values may be shown once.

Experiments:
[1] = target: mɑAXL (mouse); assay: SPR
[2] = target: human Quiescin Sulfhydryl Oxidase 1 (residues 34–546 of HsQSOX1) (human, UniProt O00391); assay: enzyme inhibition
[3] = target: biotinylated lysozyme (GeneTex) (Gallus gallus (hen egg white), UniProt P00698, biotin); assay: flow cytometry on cells
Chain of biotinylated lysozyme (GeneTex) (P00698 19-147): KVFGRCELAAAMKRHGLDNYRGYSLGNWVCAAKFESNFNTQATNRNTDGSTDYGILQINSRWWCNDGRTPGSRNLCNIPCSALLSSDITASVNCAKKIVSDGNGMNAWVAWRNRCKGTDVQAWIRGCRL

[4] = target: hen-egg white lysozyme (Sigma) (Gallus gallus (hen egg white), UniProt P00698); assay: SPR
Chain of hen-egg white lysozyme (Sigma) (P00698 19-147): as above

Chain of human Quiescin Sulfhydryl Oxidase 1 (residues 34–546 of HsQSOX1) (O00391 34-546): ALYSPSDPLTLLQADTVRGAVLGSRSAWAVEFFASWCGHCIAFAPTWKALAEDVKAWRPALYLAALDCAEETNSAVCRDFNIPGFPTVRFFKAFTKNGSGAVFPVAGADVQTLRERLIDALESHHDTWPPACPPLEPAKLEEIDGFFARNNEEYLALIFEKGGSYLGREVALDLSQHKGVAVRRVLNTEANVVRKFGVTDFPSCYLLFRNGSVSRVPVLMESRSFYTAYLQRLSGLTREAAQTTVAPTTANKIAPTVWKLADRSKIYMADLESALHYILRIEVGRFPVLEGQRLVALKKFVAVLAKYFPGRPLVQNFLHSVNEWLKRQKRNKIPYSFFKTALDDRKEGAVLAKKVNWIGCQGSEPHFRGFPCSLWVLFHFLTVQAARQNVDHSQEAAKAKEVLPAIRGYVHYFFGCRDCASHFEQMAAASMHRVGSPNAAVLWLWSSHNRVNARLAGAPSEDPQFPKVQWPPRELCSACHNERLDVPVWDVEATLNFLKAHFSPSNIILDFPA

AXL (R&D systems) (from UniProt P30530) (receptor)
Kd [1]: 0.95 nM
koff [1]: 0.000524 s⁻¹
kon [1]: 550000 M⁻¹ s⁻¹

B1: murine monoclonal antibody mAb492.1 (antibody, V domains shown)
VH: QVQLKQSGPGLVAPSQSLSITCTVSGFSLTGYGVNWVRQSPGKGLEWLGMIWGDGRTDYKSALKSRLSITKDNSKSQVFLKMNSLQTDDTARYFCASDYYGSGSFAYWGQGTLVTVSA
VL: DVVMTQSHKFMSTSVGDRVSITCKASQDVSTAVAWYQQKSGQSPKLLIHSASYRYTGVPDRFTGSGSGTDFTFTISSVQAEDLAVYYCQQHYSIPLTFGAGTKLELK
binding result [2]: binds

B2: CUMAb design 6 of D44.1 formatted as scFv (scFv, V domains shown)
VH: EVQLVQSGAEVKKPGATVKISCKVSGYTFSTYWMEWVQQAPGKGLEWMGEVLPGSGSTYYAEKFQGRVTITADTSTDTAYMELSSLRSEDTAVYYCARGDGYFQHWGQGTLVTVSS
VL: EIVLTQSPDFQSVTPKEKVTITCRASQSISSNLHWYQQKPDQSPKLLIKYASQSFSGVPSRFSGSGSGTDFTLTINSLEAEDAATYYCHQSNSWPRTFGPGTKVDIK
binding result [3]: binds

B3: hɑHEWL Fab (design 1 as a human IgG1 Fab) (Fab, V domains shown)
VH: B2 VH
VL: DIQMTQSPSSLSASVGDRVTITCRASQSISSNLNWYQQKPGKAPKLLIYYASSLQSGVPSRFSGSGSGTDFTLTISSLQPEDFATYYCQQSNSWPRTFGPGTKVDIK
Kd [4]: 42 nM and 44 nM
koff [4]: 0.16 s⁻¹
kon [4]: 3.9e+06 M⁻¹ s⁻¹
